{"source": "paper PMC8907193", "about": "(2022)", "binders": {"B1": {"name": "PA26^YF (other)", "chain": "PPKRAALIQNLRDSYTETSSFAVIEEWAAGTLQEIEGIAKAAAEAHGVIRNSTYGRAQAEKSPEQLLGVLQRYQDLCHNVYCQAETIRTVIAIRIPEHKEADNLGVAVQHAVLKIIDELEIKTLGSGEKSGSGGAPTPIGMYALREYLSARSTVEDKLLGSVDAESGKTKGGSQSPSLLLELRQIDADFMLKVELATTHLSTMVRAVINAYLLNWKKLIQPRTGNLSYFT"}, "B2": {"name": "wild-type PA26 (T. brucei) (natural protein)", "chain": "PPKRAALIQNLRDSYTETSSFAVIEEWAAGTLQEIEGIAKAAAEAHGVIRNSTYGRAQAEKSPEQLLGVLQRYQDLCHNVYCQAETIRTVIAIRIPEHKEEDNLGVAVQHAVLKIIDELEIKTLGSGEKSGSGGAPTPIGMYALREYLSARSTVEDKLLGSVDAESGKTKGGSQSPSLLLELRQIDADFMLKVELATTHLSTMVRAVINAYLLNWKKLIQPRTGSDHMVS"}, "B3": {"name": "PA26^E102A-Opt5 (other)", "chain": "PPKRAALIQNLRDSYTETSSFAVIEEWAAGTLQEIEGIAKAAAEAHGVIRNSTYGRAQAEKSPEQLLGVLQRYQDLCHNVYCQAETIRTVIAIRIPEHKEADNLGVAVQHAVLKIIDELEIKTLGSGEKSGSGGAPTPIGMYALREYLSARSTVEDKLLGSVDAESGKTKGGSQSPSLLLELRQIDADFMLKVELATTHLSTMVRAVINAYLLNWKKLIQPRTGNLSYYT"}}, "key": {"[1]": {"target": "T1, biotinylated human 20S proteasome (human, UniProt P60900 1-246; P25787 1-234; P25789 1-261; O14818 1-248; P28066 1-241; P25786 …)", "assay": "BLI"}, "[2]": {"target": "T1, biotinylated human 20S proteasome", "assay": "BLI", "remark": "listed apart in the source"}}, "data": [{"binder": "B1", "values": [{"measurement": "Kd", "setting": "[1]", "value": 0.22, "unit": "nM"}, {"measurement": "koff", "setting": "[2]", "value": 0.00026, "unit": "s⁻¹"}]}, {"binder": "B2", "values": [{"measurement": "Kd", "setting": "[1]", "value": 0.1, "unit": "nM"}, {"measurement": "koff", "setting": "[2]", "value": 0.00029, "unit": "s⁻¹"}]}, {"binder": "B3", "values": [{"measurement": "koff", "setting": "[2]", "value": 0.00016, "unit": "s⁻¹"}]}]}
